B1: Speckle-type POZ protein (Homo sapiens), O43791 (parent)
chain: MSRVPSPPPPAEMSSGPVAESWCYTQIKVVKFSYMWTINNFSFCREEMGEVIKSSTFSSGANDKLKWCLRVNPKGLDEESKDYLSLYLLLVSCPKSEVRAKFKFSILNAKGEETKAMESQRAYRFVQGKDWGFKKFIRRDFLLDEANGLLPDDKLTLFCEVSVVQDSVNISGQNTMNMVKVPECRLADELGGLWENSRFTDCCLCVAGQEFQAHKAILAARSPVFSAMFEHEMEESKKNRVEINDVEPEVFKEMMCFIYTGKAPNLDKMADDLLAAADKYALERLKVMCEDALCSNLSVENAAEILILADLHSADQLKTQAVDFINYHASDVLETSGWKSMVVSHPHLVAEAYRSLASAQCPFLGPPRKRLKQS
partner: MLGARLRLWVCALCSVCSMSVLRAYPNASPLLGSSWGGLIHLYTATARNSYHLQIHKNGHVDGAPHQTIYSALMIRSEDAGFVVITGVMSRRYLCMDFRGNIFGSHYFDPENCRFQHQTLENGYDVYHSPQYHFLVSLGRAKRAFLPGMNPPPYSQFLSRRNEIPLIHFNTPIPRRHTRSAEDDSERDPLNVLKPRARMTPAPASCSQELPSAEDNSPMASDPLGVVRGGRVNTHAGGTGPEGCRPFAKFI
B2: Speckle-type POZ protein (Homo sapiens), O43791 (parent)
chain: B1 chain
partner: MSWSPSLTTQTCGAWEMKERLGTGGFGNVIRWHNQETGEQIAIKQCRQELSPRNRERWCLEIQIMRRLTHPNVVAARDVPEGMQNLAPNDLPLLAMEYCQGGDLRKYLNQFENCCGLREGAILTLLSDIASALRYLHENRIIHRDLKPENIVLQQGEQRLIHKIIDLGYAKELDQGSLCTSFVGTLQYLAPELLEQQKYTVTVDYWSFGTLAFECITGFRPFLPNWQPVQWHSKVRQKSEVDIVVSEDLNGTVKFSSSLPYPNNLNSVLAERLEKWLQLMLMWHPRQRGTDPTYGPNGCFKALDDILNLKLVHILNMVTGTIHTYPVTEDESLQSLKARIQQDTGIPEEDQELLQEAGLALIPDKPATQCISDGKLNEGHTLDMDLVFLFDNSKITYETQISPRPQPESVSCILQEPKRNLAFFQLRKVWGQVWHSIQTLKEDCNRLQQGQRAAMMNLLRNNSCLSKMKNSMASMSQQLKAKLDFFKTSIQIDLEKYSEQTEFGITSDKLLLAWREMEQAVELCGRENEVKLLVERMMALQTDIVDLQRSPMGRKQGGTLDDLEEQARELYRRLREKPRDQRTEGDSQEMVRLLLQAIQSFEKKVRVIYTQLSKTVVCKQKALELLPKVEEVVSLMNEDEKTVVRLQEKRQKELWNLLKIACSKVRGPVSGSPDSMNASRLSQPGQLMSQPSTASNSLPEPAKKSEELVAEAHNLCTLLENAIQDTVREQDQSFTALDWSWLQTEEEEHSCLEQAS
B3: Speckle-type POZ protein (Homo sapiens), O43791 (parent)
chain: B1 chain
partner: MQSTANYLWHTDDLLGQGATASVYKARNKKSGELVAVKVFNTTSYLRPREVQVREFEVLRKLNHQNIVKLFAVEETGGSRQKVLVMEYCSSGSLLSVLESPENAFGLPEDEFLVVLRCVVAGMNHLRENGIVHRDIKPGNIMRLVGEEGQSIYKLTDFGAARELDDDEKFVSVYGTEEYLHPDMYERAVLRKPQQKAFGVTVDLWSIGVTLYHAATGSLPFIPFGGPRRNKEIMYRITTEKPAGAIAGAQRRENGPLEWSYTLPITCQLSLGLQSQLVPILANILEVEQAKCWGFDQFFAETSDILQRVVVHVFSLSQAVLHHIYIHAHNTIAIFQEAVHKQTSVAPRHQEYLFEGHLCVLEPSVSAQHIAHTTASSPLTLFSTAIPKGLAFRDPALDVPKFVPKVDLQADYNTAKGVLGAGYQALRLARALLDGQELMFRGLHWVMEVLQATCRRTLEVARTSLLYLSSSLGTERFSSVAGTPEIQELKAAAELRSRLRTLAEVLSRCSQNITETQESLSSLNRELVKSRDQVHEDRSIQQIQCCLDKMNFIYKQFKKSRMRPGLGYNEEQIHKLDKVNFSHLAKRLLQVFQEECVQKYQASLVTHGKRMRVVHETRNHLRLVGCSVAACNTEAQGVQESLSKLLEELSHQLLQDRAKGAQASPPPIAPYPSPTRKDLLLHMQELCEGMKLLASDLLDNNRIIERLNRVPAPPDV
B4: Speckle-type POZ protein (Homo sapiens), O43791 (parent)
chain: B1 chain
partner: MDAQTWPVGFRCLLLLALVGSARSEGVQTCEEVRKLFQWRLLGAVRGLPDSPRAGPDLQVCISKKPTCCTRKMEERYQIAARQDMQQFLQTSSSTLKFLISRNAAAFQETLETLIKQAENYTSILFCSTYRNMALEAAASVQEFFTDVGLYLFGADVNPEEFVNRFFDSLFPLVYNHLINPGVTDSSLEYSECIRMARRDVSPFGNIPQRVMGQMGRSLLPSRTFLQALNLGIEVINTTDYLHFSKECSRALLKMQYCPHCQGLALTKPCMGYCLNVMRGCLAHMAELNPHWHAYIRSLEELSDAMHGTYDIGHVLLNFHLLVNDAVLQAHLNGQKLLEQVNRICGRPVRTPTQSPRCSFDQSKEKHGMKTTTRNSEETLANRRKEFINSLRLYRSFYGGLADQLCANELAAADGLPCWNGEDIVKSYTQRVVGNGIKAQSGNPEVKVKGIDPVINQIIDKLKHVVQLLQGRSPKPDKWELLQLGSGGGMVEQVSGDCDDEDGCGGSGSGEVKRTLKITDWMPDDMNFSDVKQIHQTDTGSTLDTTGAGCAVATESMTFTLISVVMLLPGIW
B5: Speckle-type POZ protein (Homo sapiens), O43791 (parent)
chain: B1 chain
partner: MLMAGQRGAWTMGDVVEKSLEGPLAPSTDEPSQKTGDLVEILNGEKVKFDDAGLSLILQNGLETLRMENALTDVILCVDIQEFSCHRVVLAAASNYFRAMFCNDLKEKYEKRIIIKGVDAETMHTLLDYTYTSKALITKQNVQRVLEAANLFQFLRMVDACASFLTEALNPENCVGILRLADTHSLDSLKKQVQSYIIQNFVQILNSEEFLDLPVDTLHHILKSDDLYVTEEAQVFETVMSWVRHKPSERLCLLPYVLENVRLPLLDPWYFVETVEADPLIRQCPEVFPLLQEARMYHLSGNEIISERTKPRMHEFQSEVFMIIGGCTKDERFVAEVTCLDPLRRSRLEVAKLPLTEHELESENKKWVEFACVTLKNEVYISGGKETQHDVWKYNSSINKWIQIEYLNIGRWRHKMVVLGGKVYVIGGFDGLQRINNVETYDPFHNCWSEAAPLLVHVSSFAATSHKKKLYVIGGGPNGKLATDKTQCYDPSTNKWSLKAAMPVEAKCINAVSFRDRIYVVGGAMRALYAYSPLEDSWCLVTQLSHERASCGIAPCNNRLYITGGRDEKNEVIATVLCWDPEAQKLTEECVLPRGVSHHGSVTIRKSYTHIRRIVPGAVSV
B6: Speckle-type POZ protein (Homo sapiens), O43791 (parent)
chain: B1 chain
partner: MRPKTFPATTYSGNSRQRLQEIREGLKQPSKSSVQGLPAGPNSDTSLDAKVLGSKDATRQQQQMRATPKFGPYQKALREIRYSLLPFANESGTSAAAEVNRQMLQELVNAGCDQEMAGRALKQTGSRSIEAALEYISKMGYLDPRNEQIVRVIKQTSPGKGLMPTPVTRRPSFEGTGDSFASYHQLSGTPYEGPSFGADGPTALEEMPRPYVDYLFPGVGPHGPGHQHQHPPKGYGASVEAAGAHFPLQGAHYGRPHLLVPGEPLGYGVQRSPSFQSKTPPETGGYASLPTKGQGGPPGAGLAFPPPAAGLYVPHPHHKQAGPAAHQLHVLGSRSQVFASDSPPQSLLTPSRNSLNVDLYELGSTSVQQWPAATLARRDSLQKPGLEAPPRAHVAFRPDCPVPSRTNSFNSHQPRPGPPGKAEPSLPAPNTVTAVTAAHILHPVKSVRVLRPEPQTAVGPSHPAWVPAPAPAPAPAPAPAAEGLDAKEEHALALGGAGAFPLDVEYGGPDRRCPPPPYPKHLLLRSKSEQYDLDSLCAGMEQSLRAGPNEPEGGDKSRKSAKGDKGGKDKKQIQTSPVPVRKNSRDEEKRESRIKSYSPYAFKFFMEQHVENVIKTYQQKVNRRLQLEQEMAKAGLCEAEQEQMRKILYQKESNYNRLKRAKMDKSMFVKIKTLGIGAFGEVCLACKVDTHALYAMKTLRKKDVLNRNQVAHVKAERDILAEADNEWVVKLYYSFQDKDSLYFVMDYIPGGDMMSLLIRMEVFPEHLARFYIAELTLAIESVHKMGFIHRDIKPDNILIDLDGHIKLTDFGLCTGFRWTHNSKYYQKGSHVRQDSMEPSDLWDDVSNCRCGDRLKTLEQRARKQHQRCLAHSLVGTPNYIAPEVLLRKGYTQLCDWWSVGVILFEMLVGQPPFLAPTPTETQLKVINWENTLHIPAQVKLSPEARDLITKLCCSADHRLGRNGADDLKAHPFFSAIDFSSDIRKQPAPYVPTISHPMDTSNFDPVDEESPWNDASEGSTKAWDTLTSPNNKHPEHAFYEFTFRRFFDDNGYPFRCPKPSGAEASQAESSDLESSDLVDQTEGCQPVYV

Variants of: B1
Conditions: with fgf23_human FGF23, Q9GZV9

Variant | effect of a mutation on the interaction
Y87C | with no effect

Variants of: B1
Conditions: with fgf23_human FGF23, Q9GZV9
Remark: another data set of the same source

Variant | effect of a mutation on the interaction
F133V | with no effect

Variants of: B1
Conditions: with fgf23_human FGF23, Q9GZV9
Remark: another data set of the same source

Variant | effect of a mutation on the interaction
F133L | with no effect

Variants of: B1
Conditions: with fgf23_human FGF23, Q9GZV9
Remark: another data set of the same source

Variant | effect of a mutation on the interaction
F102C | with no effect

Variants of: B2
Conditions: with ikkb_human IKBKB

Variant | effect of a mutation on the interaction
Y87C | with no effect

Variants of: B2
Conditions: with ikkb_human IKBKB
Remark: another data set of the same source

Variant | effect of a mutation on the interaction
F102C | with no effect

Variants of: B2
Conditions: with ikkb_human IKBKB
Remark: another data set of the same source

Variant | effect of a mutation on the interaction
F133V | with no effect

Variants of: B2
Conditions: with ikkb_human IKBKB
Remark: another data set of the same source

Variant | effect of a mutation on the interaction
F133L | with no effect

Variants of: B3
Conditions: with ikke_human IKBKE

Variant | effect of a mutation on the interaction
Y87C | with no effect

Variants of: B3
Conditions: with ikke_human IKBKE
Remark: another data set of the same source

Variant | effect of a mutation on the interaction
F133L | with no effect

Variants of: B3
Conditions: with ikke_human IKBKE
Remark: another data set of the same source

Variant | effect of a mutation on the interaction
F133V | with no effect

Variants of: B3
Conditions: with ikke_human IKBKE
Remark: another data set of the same source

Variant | effect of a mutation on the interaction
F102C | with no effect

Variants of: B4
Conditions: with gpc5_human GPC5, P78333

Variant | effect of a mutation on the interaction
F133V | with no effect

Variants of: B4
Conditions: with gpc5_human GPC5, P78333
Remark: another data set of the same source

Variant | effect of a mutation on the interaction
F133L | with no effect

Variants of: B4
Conditions: with gpc5_human GPC5, P78333
Remark: another data set of the same source

Variant | effect of a mutation on the interaction
F102C | with no effect

Variants of: B4
Conditions: with gpc5_human GPC5, P78333
Remark: another data set of the same source

Variant | effect of a mutation on the interaction
Y87C | with no effect

Variants of: B5
Conditions: with klhl6_human KLHL6, Q8WZ60

Variant | effect of a mutation on the interaction
F133V | with no effect

Variants of: B5
Conditions: with klhl6_human KLHL6, Q8WZ60
Remark: another data set of the same source

Variant | effect of a mutation on the interaction
F133L | with no effect

Variants of: B5
Conditions: with klhl6_human KLHL6, Q8WZ60
Remark: another data set of the same source

Variant | effect of a mutation on the interaction
Y87C | with no effect

Variants of: B5
Conditions: with klhl6_human KLHL6, Q8WZ60
Remark: another data set of the same source

Variant | effect of a mutation on the interaction
F102C | with no effect

Variants of: B6
Conditions: with lats2_human LATS2, Q9NRM7

Variant | effect of a mutation on the interaction
F102C | with no effect

Variants of: B6
Conditions: with lats2_human LATS2, Q9NRM7
Remark: another data set of the same source

Variant | effect of a mutation on the interaction
F133V | with no effect

Variants of: B6
Conditions: with lats2_human LATS2, Q9NRM7
Remark: another data set of the same source

Variant | effect of a mutation on the interaction
F133L | with no effect
